These results are taken from PMC8096850, “Structure of the full-length human Pannexin1 channel and insights into its role in pyroptosis” (Cell Discovery, 2021).

By stoichiometry N is commonly meant a count of units in the complex or per binding partner.

A short description of series [1]: STED immunofluorescence, THP-1-derived macrophages. The note with it: glycan lost; control: overexpressed WT hPANX1.
Series [2] deals with the molecule itself. The series can be described thus: cryo-EM structure; single-particle cryo-EM of purified hPANX1 at about 8 mg/ml in 20 mM Hepes pH 7.4, 150 mM NaCl, 0.1% digitonin; C7 symmetry; 3.15 Å.

B1: human Pannexin1 (hPANX1): N255Q (protein)
parent chain: MAIAQLATEYVFSDFLLKEPTEPKFKGLRLELAVDKMVTCIAVGLPLLLISLAFAQEISIGTQISCFSPSSFSWRQAAFVDSYCWAAVQQKNSLQSESGNLPLWLHKFFPYILLLFAILLYLPPLFWRFAAAPHICSDLKFIMEELDKVYNRAIKAAKSARDLDMRDGACSVPGVTENLGQSLWEVSESHFKYPIVEQYLKTKKNSNNLIIKYISCRLLTLIIILLACIYLGYYFSLSSLSDEFVCSIKSGILRNDSTVPDQFQCKLIAVGIFQLLSVINLVVYVLLAPVVVYTLFVPFRQKTDVLKVYEILPTFDVLHFKSEGYNDLSLYNLFLEENISEVKSYKCLKVLENIKSSGQGIDPMLLLTNLGMIKMDVVDGKTPMSAEMREEQGNQTAELQGMNIDSETKANNGEKNARQRLLDSSC
In the case of B1, the localisation_or_trafficking result in series [1] is given as “changes”.

B2: full-length human Pannexin1 with a Strep-tag II inserted after V172 (natural protein, UniProt Q96RD7 1-426, looked up)
chain: MAIAQLATEYVFSDFLLKEPTEPKFKGLRLELAVDKMVTCIAVGLPLLLISLAFAQEISIGTQISCFSPSSFSWRQAAFVDSYCWAAVQQKNSLQSESGNLPLWLHKFFPYILLLFAILLYLPPLFWRFAAAPHICSDLKFIMEELDKVYNRAIKAAKSARDLDMRDGACSVPGVTENLGQSLWEVSESHFKYPIVEQYLKTKKNSNNLIIKYISCRLLTLIIILLACIYLGYYFSLSSLSDEFVCSIKSGILRNDSTVPDQFQCKLIAVGIFQLLSVINLVVYVLLAPVVVYTLFVPFRQKTDVLKVYEILPTFDVLHFKSEGYNDLSLYNLFLEENISEVKSYKCLKVLENIKSSGQGIDPMLLLTNLGMIKMDVVDGKTPMSAEMREEQGNQTAELQGMNIDSETKANNGEKNARQRLLDSSC
modifications: N-linked glycan at N255 (two N-acetylglucosamine and eight mannose)
notes: Pannexin1 (PANX1), Homo sapiens, full length; Homo-heptamer; Met1 is absent from the deposited hPANX1-MD model; The termini and the intracellular linker of the model rest on a locally sharpened map and MD flexible fitting; also called hPANX1; PANX1
Turning to B2, the “stoichiometry N” value in series [2] was determined as 7.
